Values quoted from earlier work in US12258594B2, “Cas proteins with reduced immunogenicity and methods of screening thereof” (THE BROAD INSTITUTE, INC., priority 2018, dated 2025).

Tested on: target RNA
Conditions: for crRNA-guided target RNA cleavage activity: LbuCas13a alanine mutants

B1: Lys718Ala: Lys718Ala mutant of LbuCas13a (protein, UniProt C7NBY4 1-1159, looked up, variant K718A)
CRISPR-associated …: MKVTKVGGISHKKYTSEGRLVKSESEENRTDERLSALLNMRLDMYIKNPSSTETKENQKRIGKLKKFFSNKMVYLKDNTLSLKNGKKENIDREYSETDILESDVRDKKNFAVLKKIYLNENVNSEELEVFRNDIKKKLNKINSLKYSFEKNKANYQKINENNIEKVEGKSKRNIIYDYYRESAKRDAYVSNVKEAFDKLYKEEDIAKLVLEIENLTKLEKYKIREFYHEIIGRKNDKENFAKIIYEEIQNVNNMKELIEKVPDMSELKKSQVFYKYYLDKEELNDKNIKYAFCHFVEIEMSQLLKNYVYKRLSNISNDKIKRIFEYQNLKKLIENKLLNKLDTYVRNCGKYNYYLQDGEIATSDFIARNRQNEAFLRNIIGVSSVAYFSLRNILETENENDITGRMRGKTVKNNKGEEKYVSGEVDKIYNENKKNEVKENLKMFYSYDFNMDNKNEIEDFFANIDEAISSIRHGIVHFNLELEGKDIFAFKNIAPSEISKKMFQNEINEKKLKLKIFRQLNSANVFRYLEKYKILNYLKRTRFEFVNKNIPFVPSFTKLYSRIDDLKNSLGIYWKTPKTNDDNKTKEIIDAQIYLLKNIYYGEFLNYFMSNNGNFFEISKEIIELNKNDKRNLKTGFYKLQKFEDIQEKIPKEYLANIQSLYMINAGNQDEEEKDTYIDFIQKIFLKGFMTYLANNGRLSLIYIGSDEETNTSLAEKAQEFDKFLKKYEQNNNIKIPYEINEFLREIKLGNILKYTERLNMFYLILKLLNHKELTNLKGSLEKYQSANKEEAFSDQLELINLLNLDNNRVTEDFELEADEIGKFLDFNGNKVKDNKELKKFDTNKIYFDGENIIKHRAFYNIKKYGMLNLLEKIADKAGYKISIEELKKYSNKKNEIEKNHKMQENLHRKYARPRKDEKFTDEDYESYKQAIENIEEYTHLKNKVEFNELNLLQGLLLRILHRLVGYTSIWERDLRFRLKGEFPENQYIEEIFNFENKKNVKYKGGQIVEKYIKFYKELHQNDEVKINKYSSANIKVLKQEKKDLYIRNYIAHFNYIPHAEISLLEVLENLRKLLSYDRKLKNAVMKSVVDILKEYGFVATFKIGADKKIGIQTLESEKIVHLKNLKKKKLMTDRNSEELCKLVKIMFEYKMEEKKSEN
- crRNA-guided target RNA cleavage activity: reduced target RNA cleavage activity

B2: Lys845Ala: Lys845Ala mutant of LbuCas13a (protein, UniProt C7NBY4 1-1159, looked up, variant K845A)
CRISPR-associated …: MKVTKVGGISHKKYTSEGRLVKSESEENRTDERLSALLNMRLDMYIKNPSSTETKENQKRIGKLKKFFSNKMVYLKDNTLSLKNGKKENIDREYSETDILESDVRDKKNFAVLKKIYLNENVNSEELEVFRNDIKKKLNKINSLKYSFEKNKANYQKINENNIEKVEGKSKRNIIYDYYRESAKRDAYVSNVKEAFDKLYKEEDIAKLVLEIENLTKLEKYKIREFYHEIIGRKNDKENFAKIIYEEIQNVNNMKELIEKVPDMSELKKSQVFYKYYLDKEELNDKNIKYAFCHFVEIEMSQLLKNYVYKRLSNISNDKIKRIFEYQNLKKLIENKLLNKLDTYVRNCGKYNYYLQDGEIATSDFIARNRQNEAFLRNIIGVSSVAYFSLRNILETENENDITGRMRGKTVKNNKGEEKYVSGEVDKIYNENKKNEVKENLKMFYSYDFNMDNKNEIEDFFANIDEAISSIRHGIVHFNLELEGKDIFAFKNIAPSEISKKMFQNEINEKKLKLKIFRQLNSANVFRYLEKYKILNYLKRTRFEFVNKNIPFVPSFTKLYSRIDDLKNSLGIYWKTPKTNDDNKTKEIIDAQIYLLKNIYYGEFLNYFMSNNGNFFEISKEIIELNKNDKRNLKTGFYKLQKFEDIQEKIPKEYLANIQSLYMINAGNQDEEEKDTYIDFIQKIFLKGFMTYLANNGRLSLIYIGSDEETNTSLAEKKQEFDKFLKKYEQNNNIKIPYEINEFLREIKLGNILKYTERLNMFYLILKLLNHKELTNLKGSLEKYQSANKEEAFSDQLELINLLNLDNNRVTEDFELEADEIGKFLDFNGNKVKDNKELKKFDTNAIYFDGENIIKHRAFYNIKKYGMLNLLEKIADKAGYKISIEELKKYSNKKNEIEKNHKMQENLHRKYARPRKDEKFTDEDYESYKQAIENIEEYTHLKNKVEFNELNLLQGLLLRILHRLVGYTSIWERDLRFRLKGEFPENQYIEEIFNFENKKNVKYKGGQIVEKYIKFYKELHQNDEVKINKYSSANIKVLKQEKKDLYIRNYIAHFNYIPHAEISLLEVLENLRKLLSYDRKLKNAVMKSVVDILKEYGFVATFKIGADKKIGIQTLESEKIVHLKNLKKKKLMTDRNSEELCKLVKIMFEYKMEEKKSEN
- crRNA-guided target RNA cleavage activity: reduced target RNA cleavage activity

B3: Arg1135Ala: Arg1135Ala mutant of LbuCas13a (protein, UniProt C7NBY4 1-1159, looked up, variant R1135A)
CRISPR-associated …: MKVTKVGGISHKKYTSEGRLVKSESEENRTDERLSALLNMRLDMYIKNPSSTETKENQKRIGKLKKFFSNKMVYLKDNTLSLKNGKKENIDREYSETDILESDVRDKKNFAVLKKIYLNENVNSEELEVFRNDIKKKLNKINSLKYSFEKNKANYQKINENNIEKVEGKSKRNIIYDYYRESAKRDAYVSNVKEAFDKLYKEEDIAKLVLEIENLTKLEKYKIREFYHEIIGRKNDKENFAKIIYEEIQNVNNMKELIEKVPDMSELKKSQVFYKYYLDKEELNDKNIKYAFCHFVEIEMSQLLKNYVYKRLSNISNDKIKRIFEYQNLKKLIENKLLNKLDTYVRNCGKYNYYLQDGEIATSDFIARNRQNEAFLRNIIGVSSVAYFSLRNILETENENDITGRMRGKTVKNNKGEEKYVSGEVDKIYNENKKNEVKENLKMFYSYDFNMDNKNEIEDFFANIDEAISSIRHGIVHFNLELEGKDIFAFKNIAPSEISKKMFQNEINEKKLKLKIFRQLNSANVFRYLEKYKILNYLKRTRFEFVNKNIPFVPSFTKLYSRIDDLKNSLGIYWKTPKTNDDNKTKEIIDAQIYLLKNIYYGEFLNYFMSNNGNFFEISKEIIELNKNDKRNLKTGFYKLQKFEDIQEKIPKEYLANIQSLYMINAGNQDEEEKDTYIDFIQKIFLKGFMTYLANNGRLSLIYIGSDEETNTSLAEKKQEFDKFLKKYEQNNNIKIPYEINEFLREIKLGNILKYTERLNMFYLILKLLNHKELTNLKGSLEKYQSANKEEAFSDQLELINLLNLDNNRVTEDFELEADEIGKFLDFNGNKVKDNKELKKFDTNKIYFDGENIIKHRAFYNIKKYGMLNLLEKIADKAGYKISIEELKKYSNKKNEIEKNHKMQENLHRKYARPRKDEKFTDEDYESYKQAIENIEEYTHLKNKVEFNELNLLQGLLLRILHRLVGYTSIWERDLRFRLKGEFPENQYIEEIFNFENKKNVKYKGGQIVEKYIKFYKELHQNDEVKINKYSSANIKVLKQEKKDLYIRNYIAHFNYIPHAEISLLEVLENLRKLLSYDRKLKNAVMKSVVDILKEYGFVATFKIGADKKIGIQTLESEKIVHLKNLKKKKLMTDANSEELCKLVKIMFEYKMEEKKSEN
- crRNA-guided target RNA cleavage activity: reduced cleavage activities

B4: His473: LbuCas13a with His473 substituted with alanine (protein, UniProt C7NBY4 1-1159, looked up, variant H473A)
CRISPR-associated …: MKVTKVGGISHKKYTSEGRLVKSESEENRTDERLSALLNMRLDMYIKNPSSTETKENQKRIGKLKKFFSNKMVYLKDNTLSLKNGKKENIDREYSETDILESDVRDKKNFAVLKKIYLNENVNSEELEVFRNDIKKKLNKINSLKYSFEKNKANYQKINENNIEKVEGKSKRNIIYDYYRESAKRDAYVSNVKEAFDKLYKEEDIAKLVLEIENLTKLEKYKIREFYHEIIGRKNDKENFAKIIYEEIQNVNNMKELIEKVPDMSELKKSQVFYKYYLDKEELNDKNIKYAFCHFVEIEMSQLLKNYVYKRLSNISNDKIKRIFEYQNLKKLIENKLLNKLDTYVRNCGKYNYYLQDGEIATSDFIARNRQNEAFLRNIIGVSSVAYFSLRNILETENENDITGRMRGKTVKNNKGEEKYVSGEVDKIYNENKKNEVKENLKMFYSYDFNMDNKNEIEDFFANIDEAISSIRAGIVHFNLELEGKDIFAFKNIAPSEISKKMFQNEINEKKLKLKIFRQLNSANVFRYLEKYKILNYLKRTRFEFVNKNIPFVPSFTKLYSRIDDLKNSLGIYWKTPKTNDDNKTKEIIDAQIYLLKNIYYGEFLNYFMSNNGNFFEISKEIIELNKNDKRNLKTGFYKLQKFEDIQEKIPKEYLANIQSLYMINAGNQDEEEKDTYIDFIQKIFLKGFMTYLANNGRLSLIYIGSDEETNTSLAEKKQEFDKFLKKYEQNNNIKIPYEINEFLREIKLGNILKYTERLNMFYLILKLLNHKELTNLKGSLEKYQSANKEEAFSDQLELINLLNLDNNRVTEDFELEADEIGKFLDFNGNKVKDNKELKKFDTNKIYFDGENIIKHRAFYNIKKYGMLNLLEKIADKAGYKISIEELKKYSNKKNEIEKNHKMQENLHRKYARPRKDEKFTDEDYESYKQAIENIEEYTHLKNKVEFNELNLLQGLLLRILHRLVGYTSIWERDLRFRLKGEFPENQYIEEIFNFENKKNVKYKGGQIVEKYIKFYKELHQNDEVKINKYSSANIKVLKQEKKDLYIRNYIAHFNYIPHAEISLLEVLENLRKLLSYDRKLKNAVMKSVVDILKEYGFVATFKIGADKKIGIQTLESEKIVHLKNLKKKKLMTDRNSEELCKLVKIMFEYKMEEKKSEN
- cleavage of target and non-target ssRNA substrate (LbuCas13a HEPN mutants): significantly reduced the cleavage of both target and non-target ssRNA substrate

B5: Gln519Ala: Gln519Ala mutant of LbuCas13a (protein, UniProt C7NBY4 1-1159, looked up, variant Q519A)
CRISPR-associated …: MKVTKVGGISHKKYTSEGRLVKSESEENRTDERLSALLNMRLDMYIKNPSSTETKENQKRIGKLKKFFSNKMVYLKDNTLSLKNGKKENIDREYSETDILESDVRDKKNFAVLKKIYLNENVNSEELEVFRNDIKKKLNKINSLKYSFEKNKANYQKINENNIEKVEGKSKRNIIYDYYRESAKRDAYVSNVKEAFDKLYKEEDIAKLVLEIENLTKLEKYKIREFYHEIIGRKNDKENFAKIIYEEIQNVNNMKELIEKVPDMSELKKSQVFYKYYLDKEELNDKNIKYAFCHFVEIEMSQLLKNYVYKRLSNISNDKIKRIFEYQNLKKLIENKLLNKLDTYVRNCGKYNYYLQDGEIATSDFIARNRQNEAFLRNIIGVSSVAYFSLRNILETENENDITGRMRGKTVKNNKGEEKYVSGEVDKIYNENKKNEVKENLKMFYSYDFNMDNKNEIEDFFANIDEAISSIRHGIVHFNLELEGKDIFAFKNIAPSEISKKMFQNEINEKKLKLKIFRALNSANVFRYLEKYKILNYLKRTRFEFVNKNIPFVPSFTKLYSRIDDLKNSLGIYWKTPKTNDDNKTKEIIDAQIYLLKNIYYGEFLNYFMSNNGNFFEISKEIIELNKNDKRNLKTGFYKLQKFEDIQEKIPKEYLANIQSLYMINAGNQDEEEKDTYIDFIQKIFLKGFMTYLANNGRLSLIYIGSDEETNTSLAEKKQEFDKFLKKYEQNNNIKIPYEINEFLREIKLGNILKYTERLNMFYLILKLLNHKELTNLKGSLEKYQSANKEEAFSDQLELINLLNLDNNRVTEDFELEADEIGKFLDFNGNKVKDNKELKKFDTNKIYFDGENIIKHRAFYNIKKYGMLNLLEKIADKAGYKISIEELKKYSNKKNEIEKNHKMQENLHRKYARPRKDEKFTDEDYESYKQAIENIEEYTHLKNKVEFNELNLLQGLLLRILHRLVGYTSIWERDLRFRLKGEFPENQYIEEIFNFENKKNVKYKGGQIVEKYIKFYKELHQNDEVKINKYSSANIKVLKQEKKDLYIRNYIAHFNYIPHAEISLLEVLENLRKLLSYDRKLKNAVMKSVVDILKEYGFVATFKIGADKKIGIQTLESEKIVHLKNLKKKKLMTDRNSEELCKLVKIMFEYKMEEKKSEN
- crRNA-guided target RNA cleavage activity: reduced cleavage activities
